Data set [1] deals with the molecule itself. The experiment in a line: SDS-PAGE with and without 2-mercaptoethanol; band at about 25 kDa without reducing agent. How it is done: The HPLC-purified recombinant human CD83ext protein (cloning and expression as described in example 1, purification as described in example 2 was analysed with the Laemmli SDS-PAGE system. To identify possible oligomeric forms of CD83 2-mercaptoethanol (ME) has been omitted from the sample buffer (2% SDS, 5% 2-Mercaptoethanol (ME), 10% Glycerol, 0.2 mM EDTA, 0.005% bromphenolblue, 62.5 mM Tris pH6.8). In the absence of this reducing agent, the intra- and interchain disulfide bonds of CD83 remain intact. The reduced and non-reduced protein samples were both incubated for 5 min at 95° C. and compared with each other by SDS-PAGE (see FIG. 7). During electrophoresis, the mobilities of oligomeric SDS-proteins is lower than those of their fully denatured SDS-polypeptide components. Without ME an upper band appears at the estimated size of a CD83-dimer (about 25 kDa), while the monomeric CD83 band (about 14 kDa) is fainting. Westernblot analysis using the anti-CD83 antibody CD83-1G11 (Lechmann et al., Protein Expression and Purification 24:445-452 (Mar. 2, 2002)) confirmed the specificity of the protein bands. Thus, hCD83ext is a disulfide-linked homodimeric protein.

Data set [2] concerns the molecule itself. The experiment in a line: SDS-PAGE with and without 2-mercaptoethanol. The source says:
The purified hCD83ext_mut129_Cys to Ser was compared to purified hCD83ext by SDS-PAGE (see FIG. 9). […] Under non-reducing conditions no CD83-dimer could be detected with the mutant CD83 protein. So the 5th carboxyterminal cysteine of the extracellular CD83 domain is necessary for the creation of homodimers. Westernblot analysis confirmed specificity of the bands (data not shown).

B1: recombinant human CD83ext protein (soluble extracellular domain of human CD83) (receptor)
chain: GSPGTPEVKVACSEDVDLPCTAPWDPQVPYTVSWVKLLEGGEERMETPQEDHLRGQHYHQKGQNGSFDAPNERPYSLKIRNTTSCNSGTYRCTLQDPDGQRNLSGKVILRVTGCPAQRKEETFKKYRAEI
notes: Expressed in E. coli as a GST fusion and cleaved with thrombin; also called hCD83ext; soluble CD83
Turning to B1, the binding result in data set [1] was “binds”.

B2: hCD83ext_mut129_Cys to Ser (receptor)
chain: GSPGTPEVKVACSEDVDLPCTAPWDPQVPYTVSWVKLLEGGEERMETPQEDHLRGQHYHQKGQNGSFDAPNERPYSLKIRNTTSCNSGTYRCTLQDPDGQRNLSGKVILRVTGSPAQRKEETFKKYRAEI
notes: Expressed in E. coli as a GST fusion and cleaved with thrombin; Monomeric; also called hCD83ext mut129 Cys to Ser mutant
In the case of B2, the binding result in data set [2] is on record as “no binding”.

These data come from US20120015890A1 (ARGOS THERAPEUTICS, published 2012).
